Target: Mouse soluble TWEAK (mouse) (UniProt O54907)
Assay: receptor interaction ELISA: antibody pre-incubated with mouse soluble TWEAK, binding to coated mouse Fn14:Fc

Row | IC50 | Binder
1 | 4.6 ng/mL | TW212 (antibody) VL: DIVLTQSPAYLTMSPGQTTTISCKASQSVSIGPIHLMHWYQQKPGQPPRLLIYGASNPESGVPARFSGSGSGTDFTLTIHPVEADDAATYFCQQGKESPRTFGPGTKLEITRADAKPTVSIFPPSSEQLGTGSATLVCFVNNFYPKDINVKWKVDGSEKRDGVLQSVTDQDSKDSTYSLSSTLSLTKADYERHNLYTCEVTHKTSTAAIVKTLNRNEC VH: QVQLQESGPGLLKPAQSLSLTCTVTGYSIRSGYWWSWIRQQPGKGLEWMGQIYNKGNTDNNPSLKSQITMTVDTSKNQFFLRLRSVTTEDTAVYYCARVFWDDAYFDVWGQGIQVTVSSATTTAPSVYPLAPACDSTTSTTNTVTLGCLVKGYFPEPVTVSWNSGALTSGVHTFPSVLHSGLYSLSSSVTVPSSTWPSQTVTCNVAHPASSTKVDKKIVPGDGSGCKPCTCPGPEVSSVFIFPPKPKDVLTISLSPKVTCVVVDISQDDPEVQFSWFIDGKEVHTAVTQPREEQFNSTYRMVSVLPILHQDWLNGKEFKCKVNSPAFPVPIEKTISKRRGQLQVPQVYTMPPPKEQLTQSQVSLTCMIKGFYPEDIDVAWQKNGQPEQSFKNTPPVLDTDETYFLYSKLDVKKDDWEKGDTFTCSVVHEALHNHHTEKTLSQRPGK
2 | 5.1 ng/mL | TW205 (antibody, V domains shown) VH: QIHLQESGLGLVKPSQSLTLTCSVTGFSITTPDYSWHWIRQFPGQTLEWMGFLYYEGDTYYNPSLKSRISIARDASKNQFFLQLKSVTTEDTATYFCVRRKYSGYGNWFAYWGQGTQVTVSS VL: QPVLTQAPSASASLRASVKLTCTLSSQHSTYYIEWYQQHPDKAPRYVMYVDSDGSHIKGDGVPDRFSGSSSGARRYLSISNLQPEDEAIYHCGVYDSTAGAVFGSGTQLTVLG
3 | 9 ng/mL | TW202 (antibody, V domains shown) VH: QLQLQESGLGLVKPSQSLTLTCSVTGFSITTPDYSWHWIRQLPGQTLEWMGFLYYEGDTYYNPSLKSRISIARDASKNQFFLQLKAVTTEDTATYFCARRKYSGYGNWFAYWGQGTLVTVSL VL: QPVLTQSPSASASLRASVKLTCTLSSQHSTYYIEWYQQRPDKAPKYVMYLDSDGSHIKGDGIPDRFSGSSSGAHRYLSISNLQPEDEAIYHCGVYDSTAGAVFGSGTQLTVLG
4 | 5 ng/mL | Antibody 15 (antibody, V domains shown) VH: QVQLQESGPGLVKPSETLSLTCAVSGYSIRSGYWWSWIRQPPGKGLEWIGQIYNKGNTDNNPALKSRVTISVDTSKNQFSLKLSSVTAADTAVYYCARVFWDDAYFDVWGQGTMVTVSS VL: EIVLTQSPATLSLSPGERATLSCKASQSVSIGPIHLMHWYQQKPGQAPRLLIYGASNPESGIPARFSGSGSGTDFTLTISSLEPEDFAVYYCQQGKESPRTFGQGTKLEIK
5 | 6 ng/mL | Antibody 23 (antibody, V domains shown) VH: QVQLQESGPGLVKPSETLSLTCTVSGYSIRSGYWWSWIRQPPGKGLEWIGQIYNKGNTDNNPALKSRVTISVDTSKNQFSLKLSSVTAADTAVYYCARVFWDDAYFDVWGQGTMVTVSS VL: EIVLTQSPGTLSLSPGERATLSCKASQSVSIGPIHLMHWYQQKPGQAPRLLIYGASNPESGIPDRFSGSGSGTDFTLTISRLEPEDFAVYYCQQGKESPRTFGQGTKLEIK
6 | 14 ng/mL | Antibody 20 (antibody, V domains shown) VH: QVQLQESGPGLVKPSETLSLTCAVSGYSIRSGYWWSWIRQQPGKGLEWIGQIYNKGNTDNSPSLKSQVTISVDTSKNQFSLKLSSVTAADTAVYYCARVFWDDAYFDVWGQGTMVTVSS VL: EIVLTQSPATLSLSPGERATLSCKASQSVSIGPIHLMHWYQQKPGQAPRLLIYGASNPESGIPARFSGSGSGTDFTLTISSLEPEDFAVYYCQQGKESPRTFGQGTKLEIK
7 | 8 ng/mL | Antibody 24 (antibody, V domains shown) VH: QVQLQESGPGLVKPSETLSLTCTVSGYSIRSGYWWSWIRQPPGKGLEWIGQIYNKGNTDNSPSLKSRVTISVDTSKNQFSLKLSSVTAADTAVYYCARVFWDDAYFDVWGQGTMVTVSS VL: EIVLTQSPGTLSLSPGERATLSCKASQSVSIGPIHLMHWYQQKPGQAPRLLIYGASNPESGIPDRFSGSGSGTDFTLTISRLEPEDFAVYYCQQGKESPRTFGQGTKLEIK
8 | 36 ng/mL | Antibody 26 (antibody, V domains shown) VH: QVQLQESGPGLVKPSETLSLTCAVSGYSIRSGYWWSWIRQQPGKGLEWIGQIYNKGNTDNSPSLKSQVTISVDTSKNQFSLKLSSVTAADTAVYYCARVFWDDAYFDVWGQGTMVTVSS VL: EIVLTQSPGTLSLSPGERATLSCKASQSVSIGPIHLMHWYQQKPGQAPRLLIYGASNPESGIPDRFSGSGSGTDFTLTISRLEPEDFAVYYCQQGKESPRTFGQGTKLEIK
9 | 6 ng/mL | Antibody 18 (antibody, V domains shown) VH: QVQLQESGPGLVKPSETLSLTCTVSGYSIRSGYWWSWIRQPPGKGLEWIGQIYNKGNTDNSPSLKSRVTISVDTSKNQFSLKLSSVTAADTAVYYCARVFWDDAYFDVWGQGTMVTVSS VL: EIVLTQSPATLSLSPGERATLSCKASQSVSIGPIHLMHWYQQKPGQAPRLLIYGASNPESGIPARFSGSGSGTDFTLTISSLEPEDFAVYYCQQGKESPRTFGQGTKLEIK
10 | 7 ng/mL | Antibody 19 (antibody, V domains shown) VH: QVQLQESGPGLVKPSETLSLTCAVSGYSIRSGYWWSWIRQQPGKGLEWIGQIYNKGNTDNNPALKSQVTISVDTSKNQFSLKLSSVTAADTAVYYCARVFWDDAYFDVWGQGTMVTVSS VL: EIVLTQSPATLSLSPGERATLSCKASQSVSIGPIHLMHWYQQKPGQAPRLLIYGASNPESGIPARFSGSGSGTDFTLTISSLEPEDFAVYYCQQGKESPRTFGQGTKLEIK
11 | 7 ng/mL | Antibody 16 (antibody, V domains shown) VH: QVQLQESGPGLVKPSETLSLTCAVSGYSIRSGYWWSWIRQPPGKGLEWIGQIYNKGNTDNSPSLKSRVTISVDTSKNQFSLKLSSVTAADTAVYYCARVFWDDAYFDVWGQGTMVTVSS VL: EIVLTQSPATLSLSPGERATLSCKASQSVSIGPIHLMHWYQQKPGQAPRLLIYGASNPESGIPARFSGSGSGTDFTLTISSLEPEDFAVYYCQQGKESPRTFGQGTKLEIK
12 | 6 ng/mL | Antibody 17 (antibody, V domains shown) VH: QVQLQESGPGLVKPSETLSLTCTVSGYSIRSGYWWSWIRQPPGKGLEWIGQIYNKGNTDNNPALKSRVTISVDTSKNQFSLKLSSVTAADTAVYYCARVFWDDAYFDVWGQGTMVTVSS VL: EIVLTQSPATLSLSPGERATLSCKASQSVSIGPIHLMHWYQQKPGQAPRLLIYGASNPESGIPARFSGSGSGTDFTLTISSLEPEDFAVYYCQQGKESPRTFGQGTKLEIK
13 | 5 ng/mL | Antibody 22 (antibody, V domains shown) VH: QVQLQESGPGLVKPSETLSLTCAVSGYSIRSGYWWSWIRQPPGKGLEWIGQIYNKGNTDNSPSLKSRVTISVDTSKNQFSLKLSSVTAADTAVYYCARVFWDDAYFDVWGQGTMVTVSS VL: EIVLTQSPGTLSLSPGERATLSCKASQSVSIGPIHLMHWYQQKPGQAPRLLIYGASNPESGIPDRFSGSGSGTDFTLTISRLEPEDFAVYYCQQGKESPRTFGQGTKLEIK
14 | 18 ng/mL | Antibody 25 (antibody, V domains shown) VH: QVQLQESGPGLVKPSETLSLTCAVSGYSIRSGYWWSWIRQQPGKGLEWIGQIYNKGNTDNNPALKSQVTISVDTSKNQFSLKLSSVTAADTAVYYCARVFWDDAYFDVWGQGTMVTVSS VL: EIVLTQSPGTLSLSPGERATLSCKASQSVSIGPIHLMHWYQQKPGQAPRLLIYGASNPESGIPDRFSGSGSGTDFTLTISRLEPEDFAVYYCQQGKESPRTFGQGTKLEIK
15 | 5 ng/mL | Antibody 21 (antibody, V domains shown) VH: QVQLQESGPGLVKPSETLSLTCAVSGYSIRSGYWWSWIRQPPGKGLEWIGQIYNKGNTDNNPALKSRVTISVDTSKNQFSLKLSSVTAADTAVYYCARVFWDDAYFDVWGQGTMVTVSS VL: EIVLTQSPGTLSLSPGERATLSCKASQSVSIGPIHLMHWYQQKPGQAPRLLIYGASNPESGIPDRFSGSGSGTDFTLTISRLEPEDFAVYYCQQGKESPRTFGQGTKLEIK

Reference: patent US20100255008A1
